Assay results reported in patent publication US20230365641.
Values joined by “and” are separate entries in the source; they are usually repeats but may differ in a detail not shown here. Identical values can stand only once.

Sequence of TC47 (chain, as listed by the source, chain 1 of 3, other chains not shown): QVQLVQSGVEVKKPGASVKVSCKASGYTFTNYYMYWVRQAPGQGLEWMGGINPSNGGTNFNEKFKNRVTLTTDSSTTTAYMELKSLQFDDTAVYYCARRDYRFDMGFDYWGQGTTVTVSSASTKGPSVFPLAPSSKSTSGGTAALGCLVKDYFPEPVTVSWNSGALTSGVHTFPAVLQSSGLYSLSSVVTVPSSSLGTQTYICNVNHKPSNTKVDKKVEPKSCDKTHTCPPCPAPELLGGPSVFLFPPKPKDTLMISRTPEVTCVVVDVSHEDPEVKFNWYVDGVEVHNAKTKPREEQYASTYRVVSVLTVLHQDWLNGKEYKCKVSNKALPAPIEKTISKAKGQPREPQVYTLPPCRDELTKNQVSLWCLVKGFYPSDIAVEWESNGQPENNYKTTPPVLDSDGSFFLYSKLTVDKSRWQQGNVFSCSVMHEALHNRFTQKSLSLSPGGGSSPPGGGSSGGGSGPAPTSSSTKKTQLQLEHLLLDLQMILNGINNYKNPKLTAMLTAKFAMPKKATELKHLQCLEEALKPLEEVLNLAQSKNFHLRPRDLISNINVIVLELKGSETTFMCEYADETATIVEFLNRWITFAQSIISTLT
Sequence of TC47 (chain, as listed by the source, chain 2 of 3, other chains not shown): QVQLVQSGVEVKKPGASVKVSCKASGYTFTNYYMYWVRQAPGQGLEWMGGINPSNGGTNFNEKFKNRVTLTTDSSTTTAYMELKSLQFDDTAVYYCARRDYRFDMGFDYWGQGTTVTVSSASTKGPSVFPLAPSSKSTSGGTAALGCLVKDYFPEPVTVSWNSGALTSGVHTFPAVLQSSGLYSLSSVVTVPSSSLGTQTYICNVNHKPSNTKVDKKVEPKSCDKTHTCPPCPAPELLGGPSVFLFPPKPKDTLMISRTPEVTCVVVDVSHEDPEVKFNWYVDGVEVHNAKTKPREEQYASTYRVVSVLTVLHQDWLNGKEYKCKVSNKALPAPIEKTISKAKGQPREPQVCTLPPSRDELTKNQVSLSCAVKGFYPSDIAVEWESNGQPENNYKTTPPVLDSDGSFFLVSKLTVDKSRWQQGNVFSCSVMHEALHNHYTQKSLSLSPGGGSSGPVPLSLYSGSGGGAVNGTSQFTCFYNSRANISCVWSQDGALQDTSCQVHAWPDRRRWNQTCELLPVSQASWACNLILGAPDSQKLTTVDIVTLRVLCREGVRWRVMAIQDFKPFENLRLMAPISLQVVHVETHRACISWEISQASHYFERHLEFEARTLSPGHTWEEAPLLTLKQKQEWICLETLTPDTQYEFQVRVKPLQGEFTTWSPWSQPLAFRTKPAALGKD
Sequence of TC24 (chain, as listed by the source, chain 1 of 3, other chains not shown): as the sequence (chain, as listed by the source, chain 1 of 3, other chains not shown) above
Sequence of TC24 (chain, as listed by the source, chain 2 of 3, other chains not shown): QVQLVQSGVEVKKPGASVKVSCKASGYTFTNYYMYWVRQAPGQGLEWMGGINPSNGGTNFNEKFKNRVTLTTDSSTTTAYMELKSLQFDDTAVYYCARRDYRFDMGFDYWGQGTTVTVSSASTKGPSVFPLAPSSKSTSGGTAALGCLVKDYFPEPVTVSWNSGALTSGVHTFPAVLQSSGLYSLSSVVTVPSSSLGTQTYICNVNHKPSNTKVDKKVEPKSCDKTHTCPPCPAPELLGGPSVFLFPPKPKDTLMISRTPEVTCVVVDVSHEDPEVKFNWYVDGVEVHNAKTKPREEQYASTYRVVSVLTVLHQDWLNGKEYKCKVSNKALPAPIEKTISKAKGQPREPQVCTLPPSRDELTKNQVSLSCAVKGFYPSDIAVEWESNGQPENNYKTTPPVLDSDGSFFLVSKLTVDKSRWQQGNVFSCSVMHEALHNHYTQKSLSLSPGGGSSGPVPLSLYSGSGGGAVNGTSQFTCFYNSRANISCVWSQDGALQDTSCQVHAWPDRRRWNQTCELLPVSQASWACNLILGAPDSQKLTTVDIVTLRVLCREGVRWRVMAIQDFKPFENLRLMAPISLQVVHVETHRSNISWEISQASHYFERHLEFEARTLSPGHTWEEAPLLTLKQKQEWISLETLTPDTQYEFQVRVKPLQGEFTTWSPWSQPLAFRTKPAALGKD
Sequence of TC46 (chain, as listed by the source, chain 1 of 3, other chains not shown): as the sequence (chain, as listed by the source, chain 1 of 3, other chains not shown) above
Sequence of TC46 (chain, as listed by the source, chain 2 of 3, other chains not shown): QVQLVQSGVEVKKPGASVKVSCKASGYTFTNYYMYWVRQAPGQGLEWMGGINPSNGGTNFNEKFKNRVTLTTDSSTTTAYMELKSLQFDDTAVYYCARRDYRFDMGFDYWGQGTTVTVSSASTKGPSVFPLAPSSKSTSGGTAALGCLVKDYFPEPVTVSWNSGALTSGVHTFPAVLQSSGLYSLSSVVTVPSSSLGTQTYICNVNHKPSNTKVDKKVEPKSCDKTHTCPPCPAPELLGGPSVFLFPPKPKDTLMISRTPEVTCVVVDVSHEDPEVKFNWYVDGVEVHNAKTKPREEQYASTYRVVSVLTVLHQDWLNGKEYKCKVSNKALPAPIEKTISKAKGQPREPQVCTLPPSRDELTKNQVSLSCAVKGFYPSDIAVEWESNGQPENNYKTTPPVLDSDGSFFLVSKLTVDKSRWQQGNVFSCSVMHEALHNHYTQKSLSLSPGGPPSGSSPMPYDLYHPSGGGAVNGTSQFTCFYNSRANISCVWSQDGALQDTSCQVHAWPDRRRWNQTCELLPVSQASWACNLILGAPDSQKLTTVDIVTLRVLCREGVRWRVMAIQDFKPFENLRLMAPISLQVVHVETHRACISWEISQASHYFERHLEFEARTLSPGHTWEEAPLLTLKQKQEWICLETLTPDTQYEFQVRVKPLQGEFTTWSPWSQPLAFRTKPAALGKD
Sequence of TC3 (chain, as listed by the source, chain 1 of 3, other chains not shown): as the sequence (chain, as listed by the source, chain 1 of 3, other chains not shown) above
Sequence of TC3 (chain, as listed by the source, chain 2 of 3, other chains not shown): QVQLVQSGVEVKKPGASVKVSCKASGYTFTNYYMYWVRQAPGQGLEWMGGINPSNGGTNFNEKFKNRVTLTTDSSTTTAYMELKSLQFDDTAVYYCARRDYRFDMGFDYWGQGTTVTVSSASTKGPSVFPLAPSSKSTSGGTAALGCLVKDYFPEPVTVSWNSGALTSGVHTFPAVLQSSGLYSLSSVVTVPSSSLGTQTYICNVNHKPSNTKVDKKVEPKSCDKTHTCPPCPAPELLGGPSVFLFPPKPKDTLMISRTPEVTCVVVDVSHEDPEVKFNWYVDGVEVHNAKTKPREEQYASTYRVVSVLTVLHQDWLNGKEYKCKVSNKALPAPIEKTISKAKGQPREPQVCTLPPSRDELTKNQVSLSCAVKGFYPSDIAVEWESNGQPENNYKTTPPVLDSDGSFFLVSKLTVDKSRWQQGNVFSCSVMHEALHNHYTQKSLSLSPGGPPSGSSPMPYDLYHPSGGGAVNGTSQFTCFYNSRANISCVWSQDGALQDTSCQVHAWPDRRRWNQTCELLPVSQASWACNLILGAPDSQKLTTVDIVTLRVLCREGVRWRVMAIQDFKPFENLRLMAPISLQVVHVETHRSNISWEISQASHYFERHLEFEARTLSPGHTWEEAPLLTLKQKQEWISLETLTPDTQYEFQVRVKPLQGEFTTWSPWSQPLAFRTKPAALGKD

B1: recombinant human MMP-2 (protein)
chain: YNFFPRKPKWDKNQITYRIIGYTPDLDPETVDDAFARAFQVWSDVTPLRFSRIHDGEADIMINFGRWEHGDGYPFDGKDGLLAHAFAPGTGVGGDSHFDDDELWTLGEGQVVRVKYGNADGEYCKFPFLFNGKEYNSCTDTGRSDGFLWCSTTYNFEKDGKYGFCPHEALFTMGGNAEGQPCKFPFRFQGTSYDSCTTEGRTDGYRWCGTTEDYDRDKKYGFCPETAMSTVGGNSEGAPCVFPFTFLGNKYESCTSAGRSDGKMWCATTANYDDDRKWGFCPDQGYSLFLVAAHEFGHAMGLEHSQDPGALMAPIYTYTKNFRLSQDDIKGIQELYGASPDIDLGTGPTPTLGPVTPEICKQDIVFDGIAQIRGEIFFFKDRFIWRTVTPRDKPMGPLLVATFWPELPEKIDAVYEAPQEEKAVFFAGNEYWIYSASTLERGYPKPLTSLGLPPDVQRVDAAFNWSKNKKTYIFAGDKFWRYNEVKKKMDPGFPKLIADAWNAIPDNLDAVVDLQGGGHSYFFKGAYYLKLENQSLKSVKFGSIKSDWLGC
Est. kcat/KM (TC53): 4900 M⁻¹ s⁻¹ and 4700 M⁻¹ s⁻¹
Est. kcat/KM (TC68): 3800 M⁻¹ s⁻¹
Est. kcat/KM (TC57): 4000 M⁻¹ s⁻¹ and 4400 M⁻¹ s⁻¹
Est. kcat/KM (TC74): 9600 M⁻¹ s⁻¹ and 9800 M⁻¹ s⁻¹
Est. kcat/KM (TC70): 11000 M⁻¹ s⁻¹
Est. kcat/KM (TC71): 130000 M⁻¹ s⁻¹ and 140000 M⁻¹ s⁻¹
Est. kcat/KM (TC69): 51000 M⁻¹ s⁻¹ and 50000 M⁻¹ s⁻¹
Est. kcat/KM (TC75): 120000 M⁻¹ s⁻¹ and 110000 M⁻¹ s⁻¹
Est. kcat/KM (TC73): 43000 M⁻¹ s⁻¹ and 41000 M⁻¹ s⁻¹

B2: recombinant human MMP-7 (protein)
chain: YSLFPNSPKWTSKVVTYRIVSYTRDLPHITVDRLVSKALNMWGKEIPLHFRKVVWGTADIMIGFARGAHGDSYPFDGPGNTLAHAFAPGTGLGGDAHFDEDERWTDGSSLGINFLYAATHELGHSLGMGHSSDPNAVMYPTYGNGDPQNFKLSQDDIKGIQKLYGKRSNSRKK
Est. kcat/KM (TC53): 24000 M⁻¹ s⁻¹ and 23000 M⁻¹ s⁻¹
Est. kcat/KM (TC68): 13000 M⁻¹ s⁻¹
Est. kcat/KM (TC57): 13000 M⁻¹ s⁻¹ and 15000 M⁻¹ s⁻¹
Est. kcat/KM (TC47): 130000 M⁻¹ s⁻¹
Est. kcat/KM (TC46): 13000 M⁻¹ s⁻¹
Est. kcat/KM (TC24): 140000 M⁻¹ s⁻¹
Est. kcat/KM (TC71): 19000 M⁻¹ s⁻¹ and 22000 M⁻¹ s⁻¹
Est. kcat/KM (TC69): 78000 M⁻¹ s⁻¹
Est. kcat/KM (TC75): 18000 M⁻¹ s⁻¹ and 19000 M⁻¹ s⁻¹
Est. kcat/KM (TC3): 13000 M⁻¹ s⁻¹
Est. kcat/KM (TC73): 71000 M⁻¹ s⁻¹ and 67000 M⁻¹ s⁻¹
